Target: the molecule itself
Assay: crystal structure; Ca2+-loaded mS100A7ΔC at 12 to 14 mg/ml in 20 mM Tris pH 8.0, 100 mM NaCl, 1% glycerol, 1 mM TCEP, 2 mM CaCl2; crystals in 0.1 M potassium thiocyanate, 20% PEG MME 2K, 0.01 M strontium chloride, 20 °C; space group P212121, 1.69 Å

B1: mouse S100A7 tailless (mS100A7ΔC), deletion mutant mS100A7(1-100) (domain or fragment, UniProt Q6S5I3 1-100, looked up)
chain: MPDTPVEDSLFQIIHCFHHYAAREGDKETLSLEELKALLLDSVPRFMDTLGRRQPYYITELFRAADKNKDNQICFDEFLYILGKLVKDYHLQFHRQLCAH
notes: mouse S100A7 (S100A15a), UniProt Q6S5I3, residues 1-100: truncated at His100, lacks the last eight residues of the C-terminal tail; Gene synthesised and subcloned in pET11a (NdeI/BamHI); no tag is mentioned; Crystallised Ca2+-loaded; residues R95-H100 are poorly defined in the structure; also called murine S100A7ΔC; S100A15a; source: E. coli BL21 RIL, purified (supernatant heated to 85 °C, DEAE …)
**Q.** Does B1 bind?
**A.** Result: binds
